The values that follow come from US20060246543.

This data set addresses T1, STAT4 immunoprecipitated with anti-STAT4 from ConA-activated thymocytes.
T1 sequence (P42228 1-749, species assumed, looked up): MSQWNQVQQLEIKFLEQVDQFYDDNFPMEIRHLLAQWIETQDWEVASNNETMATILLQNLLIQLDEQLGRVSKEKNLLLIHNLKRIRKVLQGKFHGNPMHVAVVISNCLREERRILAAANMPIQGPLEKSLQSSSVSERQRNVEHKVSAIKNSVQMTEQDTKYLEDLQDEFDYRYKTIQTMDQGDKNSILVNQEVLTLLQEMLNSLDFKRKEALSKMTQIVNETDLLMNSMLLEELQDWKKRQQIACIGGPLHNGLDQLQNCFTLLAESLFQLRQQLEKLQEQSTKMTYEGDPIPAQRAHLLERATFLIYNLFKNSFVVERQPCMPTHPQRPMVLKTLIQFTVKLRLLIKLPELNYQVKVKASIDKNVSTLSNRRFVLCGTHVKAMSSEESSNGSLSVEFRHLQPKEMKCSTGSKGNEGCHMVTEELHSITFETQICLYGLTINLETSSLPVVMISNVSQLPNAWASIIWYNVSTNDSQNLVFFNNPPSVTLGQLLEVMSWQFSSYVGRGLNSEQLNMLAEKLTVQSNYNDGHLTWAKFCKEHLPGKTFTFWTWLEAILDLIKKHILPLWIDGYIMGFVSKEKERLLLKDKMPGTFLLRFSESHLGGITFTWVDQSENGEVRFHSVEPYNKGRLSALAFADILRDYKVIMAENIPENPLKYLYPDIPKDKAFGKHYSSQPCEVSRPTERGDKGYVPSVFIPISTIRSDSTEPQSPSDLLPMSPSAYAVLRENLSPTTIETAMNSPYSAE

B1: recombinant SLIM (His-SLIM expressed in E. coli and purified on a Nickel column) (protein)
chain: MALTVDVAGPAPWGFRISGGRDFHTPIIVTKVTERGKAEAADLRPGDIIVAINGQSAENMLHAEAQSKIRQSASPLRLQLDRSQTASPGQTNGEGSLEVLATRFQGSLRTHRDSQSSQRSACFSPVSLSPRPCSPFSTPPPTSPVALSKEDMIGCSFQSLTHSPGLAAAHHLTYPGHPTSQQAGHSSPSDSAVRVLLHSPGRPSSPRFSLDLEEDSEVFKMLQENRQGRAAPRQSSSFRLLQEALEAEERGGTPAFVPSSLSSQASLPTSRALATPPKLHTCKKCSVNISNQAVRIQEGRYRHPGCYTCADCGLNLKMRGHFWVGNELYCEKHARQRYSMPGTLNSRA
Consider B1, for which the “in vitro ubiquitination of STAT4 (biotin-ubiquitin, E1, UbcH5a; immunoblot anti-STAT4)” value is given as “purified recombinant SLIM could mediate the in vitro ubiquitination of purified STAT4 which was immunoprecipitated from ConA-activated thymocytes”.
